Assay results: the supplement of paper PMC9170038

System: MS2 coat protein
Test: apparent KD of MS2 coat protein; designed switch direction (-1 OFF switch, 1 ON switch): 1; higher = weaker reporter binding
Summary of the method: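 Transcription of designed RNA switches on Illumina chips was done by stalled E. coli RNA polymerase. SNAP-549-labelled MS2 coat protein was then titrated in doubling steps from 0.7 or 1.5 nM to 3 µM, with steps of 0.8–1.5 h at the lowest and 10–20 min at the highest concentration. The per-design median over clusters of curve-fitted normalised fluorescence is reported as apparent KD.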

[1] = input ligand: microRNA oligo, concentration not stated
[2] = Eterna round: R95, input ligand: FMN 200 uM
[3] = Eterna round: R95, input ligand: microRNA oligo, concentration not stated
[4] = Eterna round: R95, input ligand: none

| Sequence | apparent KD of MS2 coat protein (input ligand: FMN 200 uM) [nM] | apparent KD of MS2 coat protein [1] [nM] | apparent KD of MS2 coat protein (input ligand: none) [nM] | apparent KD of MS2 coat protein [2] [nM] | apparent KD of MS2 coat protein [3] [nM] | apparent KD of MS2 coat protein [4] [nM] |
| --- | --- | --- | --- | --- | --- | --- |
| UGGCUCAGACGAGGAUAUGAUCAUGGCGCUUCGGCGCAUACAUGAGGAUCACCCAUGUAAAGUGAUCAGAAGGUGUCUGAGCCU [SSNG2/7-B3] (Eterna round: R96, puzzle: Same State NG 2) | 11.5 | 12.4 | 14.4 |  |  |  |
| UUGUUUAACGUAGGAUAUCGACCUACAUGAGGAUCACCCAUGUCUUUGUAUAGUUUUUUUUGUUACGAGAAGGACGUUUUGUAU [JR_SSNG2_Sub068] (Eterna round: R96, puzzle: Same State NG 2) | 68.6 | 140 | 170 |  |  |  |
| UUGAAGAAUAUAGGAUAUUGAAUACAUAUGUUUAACAUGAGGAUCACCCAUGUGGGUUGCGGUAUCGAGAAGGAUAAAUAAUAG [Mat - Same State NG 2 - JL mod - D13] (Eterna round: R96, puzzle: Same State NG 2) | 196 | 122 | 190 |  |  |  |
| GUGGUCAGACAUGAGGAUCACCCAUGUGGAAUAAAUAAGGAGAAGGAUAUCGAAUAUAGGAUAUACGAGAAGGUUUGGUUGGUG (Eterna round: R96, puzzle: Same State NG 3) | 120 | 67.3 | 90.6 |  |  |  |
| GAGUGGUAGGGAGGAUAUGCAUUGUUAUUAAAUGCAGAAGGUUUUAACAUGAGGAUCACCCAUGUAGGACUAUUCCUGUGUUUC [Parity 67 - Jieux - Same State NG 1] (Eterna round: R96, puzzle: Same State NG 1) | 12.4 | 12.7 | 16.9 |  |  |  |
| AGCUAUCGAAAACGAUAGCAAAAGCAUGUACAUGAGGAUCACCCAUGUCAUGUACAAGCUUUUUGCUCGUCUUGAAA [Zipper 23 - 9] (Eterna round: R96, puzzle: Sensor for hsa-mir-208a) | 496 | 16.6 | 824 |  |  |  |
| AGGCUCAGAGCAGGAUAUAUGUAAUAACAUGAGGAUCACCCAUGUGUCGAGCUUCGGCUCGACACAUAGAAGGGCUCUGAGCCA [SSNG2/2-B1] (Eterna round: R96, puzzle: Same State NG 2) | 16.9 | 28.8 | 45.9 |  |  |  |
| UUAAUUAUGUAAGGAUAUACAUGAGGAUUUCUCGUAGAAGGUACAUUACAUGAGGAUCACCCAUGUGGGUGUCAGAAGACGCCA [Mat - Same State NG 1 - JL mod - D12] (Eterna round: R96, puzzle: Same State NG 1) | 269 | 210 | 404 |  |  |  |
| AGAAGACAUGAGGAUCACCCAUGUCCCUCAUGCGUAGGAUAUAUAAGAAGAAAGAAAAGGAUAGAAGGACGAAAAG [Default title] (puzzle: Same State 1) |  |  |  | 97.5 | 119 | 194 |
| GCUAGUAUAAUUGUCAACAUGAGGAUCACCCAUGUAUGUUGGCAGGAUAUCGUUUGCAAAGCAAACGAGAAGGGCUAAACUAGC [Mat - Same State NG 3 - JL Mod - D11] (Eterna round: R96, puzzle: Same State NG 3) | 61.3 | 106 | 171 |  |  |  |
| AGAUGUUAAUCAGGAUAUGGGCACAUGAGGAUCACCCAUGUAACGUAGAUACGAUGUGGUCAAGUCUAGAAGGGAUAGCUAACA [SameState NG2 #78] (Eterna round: R96, puzzle: Same State NG 2) | 125 | 60.7 | 65.9 |  |  |  |
| GGAGCCGGCACCGAGGAUAUUCAUAUUAAAACAUGAGGAUCACCCAUGUAGCUCGAAAGAGCUUGGGAGAAGGCGGAUCGGCUCG [Xeonanis - 29] (puzzle: Same State 2) |  |  |  | 30.5 | 1010 | 827 |
| GUACAGAUUAUAGGAUAUCACGUCGAAUAGACGUGAGAAGGAUAAUCACACAUGAAUAUUAAUACAUGAGGAUCACCCAUGUAC [SSNG1/17-A1] (Eterna round: R96, puzzle: Same State NG 1) | 16.7 | 12.9 | 17.1 |  |  |  |
| GUGGUGGGUUGAGGAUAUUGGUUGUUGUUGUUCCACAUGAGGAUCACCCAUGUGGGUUGUGGUUUUGAGAAGGUUGGUUGCUGG [salish99_SSNG2_r04_050] (Eterna round: R96, puzzle: Same State NG 2) | 17.2 | 14.2 | 20.3 |  |  |  |
| GCUCGACUGAUGGCCUACAUGAGGAUCACCCAUGUGACUGGGCAGGAUAUCUAGAUGCAGGAUGUAGAGAAGGGCCUGUCGAGC [SameState NG3 #43] (Eterna round: R96, puzzle: Same State NG 3) | 589 | 201 | 426 |  |  |  |
| AAUUAAGAUCAAGGAUAUCACGUCGUUUAGACGUGAGAAGGUGAUCCAUACAUGAGGAUCACCCAUGUAUAACAUGAAUUAAUU [SSNG1/8-B3] (Eterna round: R96, puzzle: Same State NG 1) | 180 | 1160 | 698 |  |  |  |
| ACAUGAGAGAUAGGAUAUCAUGUACCUACAUGUGACAUGAGGAUCACCCAUGUGGUAAGUAUGAGUGAGAAGGAUCAGAUAUGU [Equivalence 35 - Jieux - Same State NG 2] (Eterna round: R96, puzzle: Same State NG 2) | 47.9 | 272 | 467 |  |  |  |
| AGGCUCAGACGAGGAUAUAUGCGAUCACAUGAGGAUCACCCAUGUCUCGAGCUUCGGCUCGAGGCAUAGAAGGCGUCUGAGCCA [SSNG2/4-A1] (Eterna round: R96, puzzle: Same State NG 2) | 16.4 | 31.2 | 38.4 |  |  |  |
| CUGCACCGUGGAGGAUAUGGGCUGAGGCCAGGACAACCCUGGCCAACAUGAGGAUCACCCAUGUCCCAGAAGGCCACAGUGCUA [Zaenmaxe] (Eterna round: R96, puzzle: Same State NG 2) | 15.1 | 86.7 | 112 |  |  |  |
| GCUCGAUGAGCUGUCUACAUGAGGAUCACCCAUGUAGAUGGGCAGGAUAUUUACGUGCUUUGUGUAGAGAAGGGCCCAUCGAGC [SameState NG3 #77] (Eterna round: R96, puzzle: Same State NG 3) | 35 | 144 | 267 |  |  |  |
| CGGCGCUGUCGAGAGGAUAUGCGGUGAUGGACAUGAGGAUCACCCAUGUUAGCGAUAGCAUCACGGUAGAAGGCUCUACGGCUGC [Soteed Omei mod 19] (puzzle: Same State 2) |  |  |  |  | 9.83 |  |
| GAAAGAGGAAGCGAGGAUAUCGUGUUGAGUACAUGAGGAUCACCCAUGUUGUAGGUAGAGGUAGGCGAGAAGGCGCAGGAGAAGA [JR_SS2_Sub0101] (puzzle: Same State 2) |  |  |  | 60 | 40.6 | 55.4 |
| GCUGCAAGGGCAGGAUAUGGGUCCAAAGCGCAAGUGCGCUUUGGUACAUGAGGAUCACCCAUGUCCCAGAAGGGCCCAUGCGGC [Edenbiatar] (Eterna round: R96, puzzle: Same State NG 2) | 15.5 | 78.4 | 123 |  |  |  |
| GGACGAGACGCAGGAUAUGCGAAGAAGAAGGAAGCAGAAGGGCGUGUGGGACGACAUGAGGAUCACCCAUGUUCUCUGCGAGGA [ssng1 b] (Eterna round: R96, puzzle: Same State NG 1) | 363 | 116 | 331 |  |  |  |
| GUGGUCAGACAUGAGGAUCACCCAUGUGGAAUAAAUAACAGACAGGAUAUAUAAUAUAGGAUAUAGUAGAAGGGUCGAUUGGUG (Eterna round: R96, puzzle: Same State NG 3) |  | 69.7 |  |  |  |  |
| UGGCUCAGAGCAGGAUAUAUGUGAUCACAUGAGGAUCACCCAUGUCUCGAGCUUCGGCUCGAGACAUAGAAGGGCUCUGAGCCU [SSNG2/3-B3] (Eterna round: R96, puzzle: Same State NG 2) | 110 | 52.7 | 137 |  |  |  |
| AGUCCAGCGAAAGCUGGACAAAAGUAUGUACAUGAGGAUCACCCAUGUUCAUGUACAAGCUUUUUGCUCGUCUUAAA [JL mod - D95 - 10] (puzzle: Sensor for hsa-mir-208a) |  |  |  | 578 | 20.3 | 620 |
| UUACUCAUGUAAGGAUAUGCAGCCGAAACGGCUGCAGAAGGUACUAAAAUACAUGAGGAUCACCCAUGUCUAAUUAAUUAAGAC [Mat - Same State NG 1 - JL mod - D84] (Eterna round: R96, puzzle: Same State NG 1) | 139 | 36.3 | 66.5 |  |  |  |
| AGCUAUUAAUCAGGAUAUGGUCACAUGAGGAUCACCCAUGUAUAGAUGAUUGAAUGUGGUCUAAACUAGAAGGGAUUGCUAACA [SameState NG2 #57] (Eterna round: R96, puzzle: Same State NG 2) | 971 | 232 | 745 |  |  |  |
| UGCGGAUAACAGUAGGAUAUGGUCAACGCCACAUGAGGAUCACCCAUGUCGUACCGGCACCUGGACUAGAAGGACUGCCUCCCGC [Esleberi] (puzzle: Same State 2) |  |  |  | 11.6 | 26.4 | 38 |
